From patent US10500249B2, “Compositions and methods for preventing or treating diseases, conditions, or processes characterized by aberrant fibroblast proliferation and extracellular matrix deposition” (MOERAE MATRIX, INC., priority 2014, dated 2019)

Key:
Experiment in all cases: Kinase Profiling Assay
Format in all cases: biochemical
Conditions in all cases: 100 μM
BRK (h) = BRK (h) (Homo sapiens, UniProt Q13882)
In short: (§1)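 Duplicate wells; [radiolabeled] ATP phosphate onto cationic substrate; filter capture (negatively charged membrane); scintillation count; % of 100% activity control. Selectivity screen of MK2 peptide inhibitors, 266 human kinases.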

Ron (h) = Ron (h) (Homo sapiens, UniProt Q04912)
In short: as §1

MINK (h) = target: T1, MINK (h) (Homo sapiens, UniProt Q8N4C8)
T1 construct: purchased Millipore
T1 sequence (Q8N4C8 whole entry): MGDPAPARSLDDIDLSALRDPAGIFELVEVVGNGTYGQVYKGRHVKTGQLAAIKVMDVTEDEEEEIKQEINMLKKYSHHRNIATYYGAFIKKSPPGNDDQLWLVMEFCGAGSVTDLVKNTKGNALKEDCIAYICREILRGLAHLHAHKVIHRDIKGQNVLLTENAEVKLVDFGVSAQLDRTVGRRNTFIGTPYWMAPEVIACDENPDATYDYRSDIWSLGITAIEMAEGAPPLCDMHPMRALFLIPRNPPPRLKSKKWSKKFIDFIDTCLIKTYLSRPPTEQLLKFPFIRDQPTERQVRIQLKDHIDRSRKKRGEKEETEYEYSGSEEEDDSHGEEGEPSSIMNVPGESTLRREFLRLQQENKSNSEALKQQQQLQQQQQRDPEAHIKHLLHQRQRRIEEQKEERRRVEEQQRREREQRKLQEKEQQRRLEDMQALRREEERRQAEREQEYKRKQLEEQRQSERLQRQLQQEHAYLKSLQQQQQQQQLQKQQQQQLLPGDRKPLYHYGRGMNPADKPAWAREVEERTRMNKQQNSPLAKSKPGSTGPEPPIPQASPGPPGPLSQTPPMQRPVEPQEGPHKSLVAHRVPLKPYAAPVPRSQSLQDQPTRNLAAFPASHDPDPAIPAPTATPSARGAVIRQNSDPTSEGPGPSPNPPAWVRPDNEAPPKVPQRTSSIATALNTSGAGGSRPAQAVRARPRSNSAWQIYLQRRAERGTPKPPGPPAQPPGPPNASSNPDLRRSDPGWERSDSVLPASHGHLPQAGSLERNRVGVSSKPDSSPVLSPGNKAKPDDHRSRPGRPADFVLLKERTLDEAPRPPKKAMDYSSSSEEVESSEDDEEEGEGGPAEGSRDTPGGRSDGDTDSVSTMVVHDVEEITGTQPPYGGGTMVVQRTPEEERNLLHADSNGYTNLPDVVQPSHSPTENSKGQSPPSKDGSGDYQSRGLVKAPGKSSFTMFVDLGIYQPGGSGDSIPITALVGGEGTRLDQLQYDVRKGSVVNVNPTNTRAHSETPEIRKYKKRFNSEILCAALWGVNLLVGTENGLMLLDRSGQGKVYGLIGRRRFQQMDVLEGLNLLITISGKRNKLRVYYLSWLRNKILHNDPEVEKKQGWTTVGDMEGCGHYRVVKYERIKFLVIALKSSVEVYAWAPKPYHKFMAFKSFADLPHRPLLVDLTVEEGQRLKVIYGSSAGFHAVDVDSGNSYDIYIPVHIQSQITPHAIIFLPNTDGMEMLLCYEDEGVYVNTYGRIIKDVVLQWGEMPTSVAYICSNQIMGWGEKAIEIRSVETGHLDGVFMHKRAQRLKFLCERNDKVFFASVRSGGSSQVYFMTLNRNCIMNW
In short: as §1

CaMKIδ (h) = target: T2, CaMKIδ (h) (Homo sapiens, UniProt Q8IU85)
T2 construct: purchased Millipore
T2 sequence (Q8IU85 whole entry): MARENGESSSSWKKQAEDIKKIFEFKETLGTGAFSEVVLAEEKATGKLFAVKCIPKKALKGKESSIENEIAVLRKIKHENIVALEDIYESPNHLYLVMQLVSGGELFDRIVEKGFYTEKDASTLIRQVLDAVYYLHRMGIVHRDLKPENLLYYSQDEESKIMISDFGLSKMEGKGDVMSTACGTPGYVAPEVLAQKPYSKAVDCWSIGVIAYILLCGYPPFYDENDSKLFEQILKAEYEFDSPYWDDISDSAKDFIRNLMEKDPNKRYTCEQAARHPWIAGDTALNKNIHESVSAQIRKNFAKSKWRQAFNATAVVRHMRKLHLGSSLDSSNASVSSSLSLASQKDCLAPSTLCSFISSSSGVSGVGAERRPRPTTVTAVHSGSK
In short: as §1

PAK5 (h) = target: T3, PAK5 (h) (Homo sapiens, UniProt Q9P286)
T3 construct: purchased Millipore
T3 sequence (Q9P286 whole entry): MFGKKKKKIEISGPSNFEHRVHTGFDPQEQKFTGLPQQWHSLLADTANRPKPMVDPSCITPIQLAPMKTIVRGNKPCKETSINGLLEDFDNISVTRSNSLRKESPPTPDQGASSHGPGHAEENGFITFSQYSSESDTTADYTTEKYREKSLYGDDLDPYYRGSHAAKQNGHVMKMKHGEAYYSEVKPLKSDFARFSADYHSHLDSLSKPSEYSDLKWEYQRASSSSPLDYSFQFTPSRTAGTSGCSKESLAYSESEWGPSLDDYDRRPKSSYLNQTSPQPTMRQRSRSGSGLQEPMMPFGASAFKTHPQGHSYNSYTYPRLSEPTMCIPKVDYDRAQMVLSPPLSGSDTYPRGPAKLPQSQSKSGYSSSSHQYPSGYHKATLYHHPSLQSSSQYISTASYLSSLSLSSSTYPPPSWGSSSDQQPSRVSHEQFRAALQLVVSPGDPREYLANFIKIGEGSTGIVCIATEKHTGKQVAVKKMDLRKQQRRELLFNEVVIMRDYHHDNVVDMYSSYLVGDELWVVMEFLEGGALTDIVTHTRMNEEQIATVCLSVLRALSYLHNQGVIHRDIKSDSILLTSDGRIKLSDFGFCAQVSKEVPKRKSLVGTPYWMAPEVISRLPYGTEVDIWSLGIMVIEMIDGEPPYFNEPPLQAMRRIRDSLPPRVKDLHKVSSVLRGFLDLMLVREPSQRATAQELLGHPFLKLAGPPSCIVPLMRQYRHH
In short: as §1

IGF-1R (h), activated = target: T4, IGF-1R (h), activated (Homo sapiens, UniProt P08069)
T4 construct: purchased Millipore
T4 sequence (P08069 959-1367 limits assumed): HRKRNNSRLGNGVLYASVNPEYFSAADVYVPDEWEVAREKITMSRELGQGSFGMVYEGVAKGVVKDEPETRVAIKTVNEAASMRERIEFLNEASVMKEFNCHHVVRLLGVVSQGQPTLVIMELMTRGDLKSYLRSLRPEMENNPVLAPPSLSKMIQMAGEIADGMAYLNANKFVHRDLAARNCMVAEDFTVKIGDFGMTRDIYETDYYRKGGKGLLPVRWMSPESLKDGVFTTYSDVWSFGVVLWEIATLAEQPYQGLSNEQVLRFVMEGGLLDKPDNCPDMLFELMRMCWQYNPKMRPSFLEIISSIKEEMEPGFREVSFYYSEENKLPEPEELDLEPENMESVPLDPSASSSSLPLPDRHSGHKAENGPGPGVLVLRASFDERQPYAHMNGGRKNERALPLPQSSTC
In short: as §1

Met(D1246N) (h) = Met(D1246N) (h) (Homo sapiens, UniProt P08581, D1228N)
In short: as §1

WNK2 (h) = WNK2 (h) (Homo sapiens, UniProt Q9Y3S1)
In short: as §1

IKKβ (h) = target: T5, IKKβ (h) (Homo sapiens, UniProt O14920)
T5 construct: purchased Millipore
T5 sequence (O14920 1-756): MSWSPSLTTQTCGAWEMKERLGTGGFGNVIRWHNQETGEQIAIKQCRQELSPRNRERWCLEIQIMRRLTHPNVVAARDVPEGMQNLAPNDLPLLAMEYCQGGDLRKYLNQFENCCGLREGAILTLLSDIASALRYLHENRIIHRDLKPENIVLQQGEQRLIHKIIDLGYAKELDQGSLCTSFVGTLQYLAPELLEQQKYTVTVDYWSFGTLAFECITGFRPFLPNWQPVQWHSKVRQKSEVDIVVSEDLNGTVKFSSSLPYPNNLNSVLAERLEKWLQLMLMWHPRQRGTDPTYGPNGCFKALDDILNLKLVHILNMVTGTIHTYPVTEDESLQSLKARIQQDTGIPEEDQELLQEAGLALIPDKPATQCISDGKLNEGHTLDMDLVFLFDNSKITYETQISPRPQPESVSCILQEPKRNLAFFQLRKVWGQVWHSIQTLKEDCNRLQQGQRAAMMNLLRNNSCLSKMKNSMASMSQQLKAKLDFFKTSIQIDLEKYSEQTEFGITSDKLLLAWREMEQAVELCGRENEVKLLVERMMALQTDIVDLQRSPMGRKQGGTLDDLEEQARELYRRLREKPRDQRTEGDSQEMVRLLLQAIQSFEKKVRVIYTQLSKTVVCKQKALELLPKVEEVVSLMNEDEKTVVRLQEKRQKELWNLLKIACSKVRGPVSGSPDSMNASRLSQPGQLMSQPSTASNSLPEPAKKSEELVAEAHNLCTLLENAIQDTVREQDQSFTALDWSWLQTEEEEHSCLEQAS
In short: as §1

Fms(Y969C) (h) = Fms(Y969C) (h) (Homo sapiens, UniProt P07333, Y969C)
In short: as §1

SAPK2b (h) = SAPK2b (h) (Homo sapiens, UniProt Q15759)
Chain of SAPK2b (h) (Q15759 whole entry): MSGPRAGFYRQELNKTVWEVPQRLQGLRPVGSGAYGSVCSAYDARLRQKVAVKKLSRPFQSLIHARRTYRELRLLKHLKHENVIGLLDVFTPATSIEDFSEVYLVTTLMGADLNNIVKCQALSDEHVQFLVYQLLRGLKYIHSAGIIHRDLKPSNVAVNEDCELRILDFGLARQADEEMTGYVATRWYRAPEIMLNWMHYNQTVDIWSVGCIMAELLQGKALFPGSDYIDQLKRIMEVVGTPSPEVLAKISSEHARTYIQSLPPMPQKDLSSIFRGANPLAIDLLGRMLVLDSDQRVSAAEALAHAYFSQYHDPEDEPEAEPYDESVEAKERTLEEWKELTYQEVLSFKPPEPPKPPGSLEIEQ
In short: as §1

mTOR (h) = target: T6, mTOR (h) (Homo sapiens, UniProt P42345)
T6 construct: purchased Millipore
In short: as §1

PKCζ (h) = target: T7, PKCζ (h) (Homo sapiens, UniProt Q05513)
T7 sequence (Q05513 1-592): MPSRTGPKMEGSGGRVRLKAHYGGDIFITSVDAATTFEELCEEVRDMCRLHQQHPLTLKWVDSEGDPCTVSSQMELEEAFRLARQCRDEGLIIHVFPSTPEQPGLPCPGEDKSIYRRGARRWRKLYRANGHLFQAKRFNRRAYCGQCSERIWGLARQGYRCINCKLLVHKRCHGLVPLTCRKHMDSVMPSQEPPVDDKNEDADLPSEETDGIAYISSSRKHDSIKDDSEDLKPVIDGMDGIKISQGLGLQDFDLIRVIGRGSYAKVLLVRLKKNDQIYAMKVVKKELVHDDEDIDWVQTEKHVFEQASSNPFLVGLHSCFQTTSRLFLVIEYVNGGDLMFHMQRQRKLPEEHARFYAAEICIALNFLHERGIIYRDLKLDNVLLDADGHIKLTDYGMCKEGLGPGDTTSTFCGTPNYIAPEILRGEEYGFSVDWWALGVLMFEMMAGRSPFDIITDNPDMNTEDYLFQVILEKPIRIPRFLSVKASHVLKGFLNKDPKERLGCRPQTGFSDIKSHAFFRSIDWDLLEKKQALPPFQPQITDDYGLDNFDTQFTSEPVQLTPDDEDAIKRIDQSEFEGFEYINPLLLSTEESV
In short: as §1

Chain of BRK (h) (Q13882 whole entry): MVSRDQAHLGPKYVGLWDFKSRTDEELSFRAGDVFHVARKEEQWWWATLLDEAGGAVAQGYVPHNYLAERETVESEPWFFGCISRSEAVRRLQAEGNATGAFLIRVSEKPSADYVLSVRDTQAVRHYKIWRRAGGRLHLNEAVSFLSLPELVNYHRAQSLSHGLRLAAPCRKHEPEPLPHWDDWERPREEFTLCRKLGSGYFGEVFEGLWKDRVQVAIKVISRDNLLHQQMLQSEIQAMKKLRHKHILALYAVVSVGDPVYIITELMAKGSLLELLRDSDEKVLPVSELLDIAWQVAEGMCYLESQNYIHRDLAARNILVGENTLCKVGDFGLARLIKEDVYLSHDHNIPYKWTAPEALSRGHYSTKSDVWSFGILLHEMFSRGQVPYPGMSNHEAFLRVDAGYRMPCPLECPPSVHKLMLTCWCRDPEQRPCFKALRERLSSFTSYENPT

Sequence	% activity (BRK (h)) [%]	% activity (Ron (h)) [%]	% activity (MINK (h)) [%]	% activity (CaMKIδ (h)) [%]	% activity (PAK5 (h)) [%]	% activity (IGF-1R (h), activated) [%]	% activity (Met(D1246N) (h)) [%]	% activity (WNK2 (h)) [%]	% activity (IKKβ (h)) [%]	% activity (Fms(Y969C) (h)) [%]	% activity (SAPK2b (h)) [%]	% activity (mTOR (h)) [%]	% activity (PKCζ (h)) [%]
FAKLAARLYRKALARQLGVAA [MMI-0300]	35	93	48	10	110	80	82	64	84	72	81	91	81
KAFAKLAARLYRKALARQLGVAA [MMI-0400]	18	79	52	17	–	77	31	54	84	91	82	93	75
YARAAARQARAKALNRQLGVA (Mammalian) [MMI-0200]	127	120	–	47	100	94	149	94	–	88	95	110	98
HRRIKAWLKKIKALARQLGVAA (Mammalian) [MMI-0500]	41	46	5	0	125	45	90	8	71	–	42	135	7
